Assay results: publication PMC8629194 (bioRxiv, 2021)

Molecular target: wt ACE2_(615)-Fc (M27) (human, UniProt Q9BYF1 18-615)
Assay: SPR

Sequence of wt ACE2_(615)-Fc (M27) (Q9BYF1 18-615): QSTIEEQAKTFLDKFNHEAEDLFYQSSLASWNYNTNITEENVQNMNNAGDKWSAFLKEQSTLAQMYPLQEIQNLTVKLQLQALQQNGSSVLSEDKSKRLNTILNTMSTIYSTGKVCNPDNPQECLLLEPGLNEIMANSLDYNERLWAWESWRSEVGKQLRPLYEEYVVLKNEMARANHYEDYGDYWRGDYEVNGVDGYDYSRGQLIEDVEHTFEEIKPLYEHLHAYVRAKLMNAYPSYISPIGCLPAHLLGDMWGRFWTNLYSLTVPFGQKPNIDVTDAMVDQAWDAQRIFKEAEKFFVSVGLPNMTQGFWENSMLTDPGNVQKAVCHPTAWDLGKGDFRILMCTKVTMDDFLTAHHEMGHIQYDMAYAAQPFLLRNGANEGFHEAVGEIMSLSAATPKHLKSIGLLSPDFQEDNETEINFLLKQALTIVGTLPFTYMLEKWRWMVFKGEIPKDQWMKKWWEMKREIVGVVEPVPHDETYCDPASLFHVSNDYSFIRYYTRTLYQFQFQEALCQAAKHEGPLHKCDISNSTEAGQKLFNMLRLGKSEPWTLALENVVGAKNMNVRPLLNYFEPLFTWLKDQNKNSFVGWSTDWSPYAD

B1: SARS-CoV RBD (residue 306–577) (domain or fragment)
chain: not shown
- fold, affinity of RBDwt for M27 over that of SARS-CoV-1 RBD: ~5 fold
